One molecule from patent US6608174B1, “Radiolabeled vasoactive intestinal peptide analogs for diagnosis and radiotherapy” (Dabur Research Foundation, priority 2000, dated 2003) can be followed below.

Each structure is given as a SMILES string. Square brackets hold non-standard residues; d marks the D form. Peptide text beside a SMILES is read from it. * marks the point of attachment. DTPA = O=C(O)CN(CCN(CC(=O)O)CC(=O)O)CCN(CC(=O)O)CC(=O)*; dPhe(4-Cl) = N[C@H](Cc1ccc(Cl)cc1)C(=O)O; Aib = CC(C)(N)C(=O)O; Ahx = NCCCCCC(=O)O

This series has as its system human adenocarcinoma tumor. More on the design: species or system NIH nu/nu nude mice. The settings on record: mouse, in vivo, iv. The text has this:
Tc-99m labeled peptide (SEQ ID NO: 10) was used to image tumors induced subcutaneously in the abdomen of NIH nu/nu nude mice. Following intravenous administration in human adenocarcinoma tumor bearing nude mice, images were taken at different time intervals post […], using a conventional gamma camera. […] The results are shown in FIG. 1 which clearly depicts that the accumulation of Tc-99m labeled VIP analog is high in tumor (indicated with arrow) as compared to the accumulation in viscera (unmarked dots) after 3 hours of injection.

Take `CC[C@H](C)[C@H](NC(=O)[C@H](CO)NC(=O)[C@H](CC(N)=O)NC(=O)[C@H](CC(C)C)NC(=O)[C@H](Cc1ccc(O)cc1)NC(=O)[C@H](CCCCN)NC(=O)[C@H](CCCCN)NC(=O)[C@@H](NC(=O)[C@H](C)NC(=O)[C@H](CC(C)C)NC(=O)[C@H](CCC(N)=O)NC(=O)[C@H](CCCCN)NC(=O)[C@H](CCCNC(=N)N)NC(=O)[C@H](CC(C)C)NC(=O)[C@H](CCCNC(=N)N)NC(=O)[C@@H](NC(=O)[C@H](Cc1ccc(O)cc1)NC(=O)[C@H](CC(N)=O)NC(=O)[C@H](CC(=O)O)NC(=O)[C@@H](NC(=O)[C@@H](Cc1ccc(Cl)cc1)NC(=O)[C@@H](NC(=O)C(C)(C)NC(=O)[C@H](CC(=O)O)NC(=O)[C@H](CO)NC(=O)[C@H](Cc1c[nH]cn1)NC(=O)CCCCCNC(=O)CN(CCN(CCN(CC(=O)O)CC(=O)O)CC(=O)O)CC(=O)O)C(C)C)[C@@H](C)O)[C@@H](C)O)C(C)C)C(=O)N[C@@H](CC(C)C)C(=O)N[C@@H](CC(N)=O)C(N)=O` [Tc-99m labeled peptide (SEQ ID NO: 10), metal not drawn] ({DTPA-Ahx}-HSD[Aib]V[dPhe(4-Cl)]TDNYTRLRKQLAVKKYLNSILN-NH2): the “accumulation in liver and kidney” value was “little accumulation in liver and kidney”; the blood clearance result was “rapid blood clearance”.
